Reference: patent US20240069033A1, “METHOD FOR SCREENING FOR CANDIDATE MOLECULE CAPABLE OF FORMING COMPLEX IN CONJUNCTION WITH PLURALITY OF TARGET MOLECULES” (Chugai Seiyaku Kabushiki Kaisha, priority 2020, published 2024)
Blank lines part the entries; values can stand above or below the substance they belong to.

How the values were obtained:
biotinylated GFP1-9 [1] = assay: mRNA display pull-down with biotinylated GFP1-9, qPCR; corrected with the display efficiency
biotinylated GFP1-9 [2] = assay: mRNA display pull-down: 0.42 µM Display molecule with 1 µM biotinylated GFP1-9, streptavidin beads, TEV elution, qPCR
biotinylated GFP1-9 [3] = assay: cell-based or functional assay
GFP10-Link12-FRB-His×6 = assay: cell-based or functional assay
Sequence of GFP10-Link12-FRB-His×6 (chain, as listed by the source limits assumed): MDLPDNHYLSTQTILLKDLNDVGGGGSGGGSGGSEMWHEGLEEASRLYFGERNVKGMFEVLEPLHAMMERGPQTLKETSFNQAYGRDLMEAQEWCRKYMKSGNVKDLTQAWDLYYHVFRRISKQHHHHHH

[4] = target: anti-ubiquitin antibody (Mouse IgG1 monoclonal antibody; clone name FK2); assay: mRNA display pull-down on anti-ubiquitin antibody (FK2) magnetic beads, qPCR; 1:1 mixture of the two display molecules
[5] = target: anti-ubiquitin antibody (Mouse IgG1 monoclonal antibody; clone name FK2); assay: mRNA display pull-down on anti-ubiquitin antibody (FK2) magnetic beads, qPCR; 1:1 mixture; corrected with the display efficiency
[6] = target: anti-ubiquitin antibody (Mouse IgG1 monoclonal antibody; clone name FK2); assay: mRNA display pull-down on anti-ubiquitin antibody (FK2) magnetic beads, heat elution, qPCR
[7] = target: anti-ubiquitin antibody (Mouse IgG1 monoclonal antibody; clone name FK2); assay: mRNA display pull-down on anti-ubiquitin antibody (FK2) magnetic beads, qPCR; corrected with the display efficiency
[8] = target: anti-ubiquitin antibody (Mouse IgG1 monoclonal antibody; clone name FK2); assay: mRNA display pull-down on anti-ubiquitin antibody (FK2) magnetic beads, qPCR

Sequence of GFP10-11 fusion peptide (peptide; modification not given; biotinylated at the Avi tag (co-expression with BirA)) (chain, as listed by the source): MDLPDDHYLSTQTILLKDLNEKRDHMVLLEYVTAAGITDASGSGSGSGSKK
Sequence of His×6-FKBP12-Link12-GFP11 (chain): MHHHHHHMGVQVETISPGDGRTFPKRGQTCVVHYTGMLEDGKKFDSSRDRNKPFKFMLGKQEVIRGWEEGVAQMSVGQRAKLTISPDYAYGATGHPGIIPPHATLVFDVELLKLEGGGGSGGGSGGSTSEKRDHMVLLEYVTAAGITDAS
Sequence of GFP10-Link12-FRB-His×6 (chain): as the sequence (chain, as listed by the source limits assumed) above

Recovered nucleic acid amount (molecules) of compound nk06 (rapamycin-nucleic acid) by pull-down with biotinylated GFP1-9; Condition 1, all three proteins at 1 µM (GFP10-Link12-FRB-His×6): 3.5e+10 molecules | Recovery rate (%) of compound nk06 (rapamycin-nucleic acid) by pull-down with biotinylated GFP1-9; Condition 1, all three proteins at 1 µM (GFP10-Link12-FRB-His×6): 8.62% | Recovered nucleic acid amount (molecules) of compound nk06 by pull-down with biotinylated GFP1-9; Condition 3, GFP10-FRB absent (biotinylated GFP1-9 [3]): 8.21e+08 molecules | Recovery rate (%) of compound nk06 by pull-down with biotinylated GFP1-9; Condition 3, GFP10-FRB absent (biotinylated GFP1-9 [3]): 0.202%
Substance: His×6-FKBP12-Link12-GFP11

Apparent recovery rate (%) [4]: 0.194% | Recovered nucleic acid amount (molecules) [4]: 7.16e+09 molecules | Recovery rate (%) [5]: 0.344%
Substance: splitUb (N) + splitUb (C)

More lines, now with the values behind:

Substance: GFP10-11 fusion peptide (peptide; modification not given; biotinylated at the Avi tag (co-expression with BirA))
Recovery rate (%) (biotinylated GFP1-9 [1]): 23.4% | Apparent recovery rate (%) (biotinylated GFP1-9 [2]): 13.1% | Recovered nucleic acid amount (molecules) (biotinylated GFP1-9 [2]): 1.31e+11 molecules

Substance: GFP10-Link12-FRB-His×6
Recovered nucleic acid amount (molecules) of compound nk06 by pull-down with biotinylated GFP1-9; Condition 4, FKBP12-GFP11 absent (biotinylated GFP1-9 [3]): 2.24e+08 molecules | Recovery rate (%) of compound nk06 by pull-down with biotinylated GFP1-9; Condition 4, FKBP12-GFP11 absent (biotinylated GFP1-9 [3]): 0.055%

Substance: splitUb(C) (peptide)
Apparent recovery rate (%) [6]: 0.571% | Recovered nucleic acid amount (molecules) [6]: 1.16e+10 molecules | Recovery rate (%) [7]: 1.01%

Substance: splitUb(N-C)
fold higher recovery rate than the other controls [8]: > 16 times | Apparent recovery rate (%) [6]: 12.3% | Recovered nucleic acid amount (molecules) [6]: 6.69e+10 molecules | Recovery rate (%) [7]: 16.1%
